Data: article PMC6498573, “Genomic analyses of aminoacyl tRNA synthetases from human-infecting helminths” (BMC Genomics, 2019)

Experiments:
[1] = molecular target: T1, Onchocerca volvulus prolyl tRNA synthetase (OvPRS) (Onchocerca volvulus, UniProt A0A2K6VID2); experiment: malachite green aminoacylation assay with recombinant purified OvPRS ([…] proline, […] ATP, […] enzyme); assay type: biochemical
T1 construct: OvPRS construct of 497 amino acids (279–775; 57 kDa), MBP-His tag removed by TEV
T1 sequence (A0A2K6VID2 279-775): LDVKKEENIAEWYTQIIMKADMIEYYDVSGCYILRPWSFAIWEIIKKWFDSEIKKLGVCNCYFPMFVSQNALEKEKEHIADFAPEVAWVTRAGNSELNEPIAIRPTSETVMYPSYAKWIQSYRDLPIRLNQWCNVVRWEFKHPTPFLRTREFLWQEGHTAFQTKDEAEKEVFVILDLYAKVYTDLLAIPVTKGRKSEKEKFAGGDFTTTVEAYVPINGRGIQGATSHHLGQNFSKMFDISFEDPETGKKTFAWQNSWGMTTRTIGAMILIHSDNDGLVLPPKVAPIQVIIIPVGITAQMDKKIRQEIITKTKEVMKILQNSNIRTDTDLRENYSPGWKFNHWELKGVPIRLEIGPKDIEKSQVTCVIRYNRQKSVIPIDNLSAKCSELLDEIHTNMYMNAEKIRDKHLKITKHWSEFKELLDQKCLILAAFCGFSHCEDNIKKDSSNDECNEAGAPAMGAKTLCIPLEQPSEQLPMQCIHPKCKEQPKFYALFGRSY

[2] = substrate: Nc1ncnc2c1ncn2[C@@H]1O[C@H](COP(=O)(O)OP(=O)(O)OP(=O)(O)O)[C@@H](O)[C@H]1O; experiment: purified protein; assay type: biochemical, Onchocerca volvulus
[3] = substrate: O=C(O)[C@@H]1CCCN1; experiment: purified protein; assay type: biochemical, Onchocerca volvulus

## O=C(CC1NCCCC1O)Cn1cnc2cc(Br)c(Cl)cc2c1=O (stereo not drawn) [HF, halofuginone]
[1]
  IC50: ~30 nM

B1: Onchocerca volvulus prolyl tRNA synthetase (OvPRS) (Onchocerca volvulus) (protein)
chain: T1 sequence (A0A2K6VID2 279-775)
notes: OvPRS construct of 497 amino acids (279–775; 57 kDa), MBP-His tag removed by TEV
[2]
  Km: 18.9 ± 2.2 µM
[3]
  Km: 24.17 ± 11 µM
